B1: GREM1: gremlin1 protein, secreted BMP antagonist of the DAN family, added exogenously or immobilized (protein)
chain: KKKGSQGAIPPPDKAQHNDSEQTQSPQQPGSRNRGRGQGRGTAMPGEEVLESSQEALHVTERKYLKRDWCKTQPLKQTIHEEGCNSRTIINRFCYGQCNSFYIPRHIRKEEGSFQSCSFCKPKKFTTMMVTLNCPELQPPTKKKRVTRVKQCRCISIDLD
B2: BMP4: BMP ligand added to cells (protein, UniProt P12644 293-408, looked up)
Bone morphogenetic protein 4: SPKHHSQRARKKNKNCRRHSLYVDFSDVGWNDWIVAPPGYQAFYCHGDCPFPLADHLNSTNHAIVQTLVNSVNSSIPKACCVPTELSAISMLYLDEYDKVVLKNYQEMVVEGCGCR

Legend:
FGFR1 = FGFR1 (Homo sapiens, UniProt P11362); assay: ELISA binding of DAN family proteins to FGFR1
Sequence of FGFR1 (P11362 3-822 limits assumed): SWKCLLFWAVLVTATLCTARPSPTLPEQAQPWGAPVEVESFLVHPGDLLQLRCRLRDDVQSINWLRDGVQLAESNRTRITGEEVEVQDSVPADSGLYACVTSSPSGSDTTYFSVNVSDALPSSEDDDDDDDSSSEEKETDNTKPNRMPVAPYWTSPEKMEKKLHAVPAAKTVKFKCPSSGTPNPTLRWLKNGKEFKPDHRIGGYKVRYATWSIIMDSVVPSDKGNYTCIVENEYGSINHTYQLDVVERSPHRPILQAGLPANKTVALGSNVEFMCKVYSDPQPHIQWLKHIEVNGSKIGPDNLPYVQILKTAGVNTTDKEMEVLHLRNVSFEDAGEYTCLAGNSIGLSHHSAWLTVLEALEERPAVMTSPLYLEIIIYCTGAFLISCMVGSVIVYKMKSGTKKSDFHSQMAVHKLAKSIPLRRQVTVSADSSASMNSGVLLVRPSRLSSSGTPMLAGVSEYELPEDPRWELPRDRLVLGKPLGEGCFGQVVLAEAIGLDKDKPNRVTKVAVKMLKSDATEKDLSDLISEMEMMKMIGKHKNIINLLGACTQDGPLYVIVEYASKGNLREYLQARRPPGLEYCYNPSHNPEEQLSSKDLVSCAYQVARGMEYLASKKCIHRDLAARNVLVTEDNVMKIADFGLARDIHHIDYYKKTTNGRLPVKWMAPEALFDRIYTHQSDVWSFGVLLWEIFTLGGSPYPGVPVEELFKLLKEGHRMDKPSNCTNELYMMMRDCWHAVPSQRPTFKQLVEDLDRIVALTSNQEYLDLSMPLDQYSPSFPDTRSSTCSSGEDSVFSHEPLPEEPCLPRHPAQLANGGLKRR

PC3 cells = assay: Sphere formation, proliferation and apoptosis of PC3 cells; assay type: cell-based, human; details: 100 ng/ml GREM1 protein in culture medium
Source text: Metastatic prostate cancer is a devastating disease and most cancers progress upon serial treatments with either androgen receptor antagonist or chemotherapy. One of the key cell types resistant to these treatments are cells with stem cells like property which has the capability of forming tumor spheres in suspension culture. To explore the role of GREM1 in the progression of CRPC, we utilized AR independent CRPC cell line PC3, as well as the AR dependent PCa cell line LNCaP and LAPC4. We generated cell sublines with loss or gain of GREM1 expression (FIGS. 3A, 4A and 5A).
14E3 was tested to target GREM1 in human PCa. The affinity and specificity of this antibody to hGREM1 was verified by ELISA (FIG. 12A). […] This antibody potentiated the anti-tumor effect of Enzalutamide in AR dependent LNCaP cells (FIG. 12B, 12C, 10K, 10L).

[1] = tested on: FGFR1/MEK/ERK signaling pathway; assay: FGFR1/MEK/ERK phosphorylation in PCa cell lines (immunoblotting); assay type: cell-based, human
Experimental: In order to test whether Gremlin1 promoted the FGFR-MAPK signaling, we first performed analysis of the expression levels of the four FGFRs in CRPC patients. […] We treated LNCaP and PC3 with GREM1 in different concentrations (1 ng/ml, 10 ng/ml, 100 ng/ml) and examined phosphorylation levels of FGFR1, MEK and ERK.
(§1) MAPK signaling can be activated through many membrane receptors besides FGFR. To test whether the activation of MAPK pathway by GREM1 was via FGFR, we constructed a FGFR1 knockout LNCaP subline by the CRISPR/Cas9 method. […] To further test whether the tumor promoting effect of GREM1 was through FGFR, we utilized small molecule inhibitors of FGFR or EGFR.
14E3 was tested to target GREM1 in human PCa.

PC-3 cells = assay: Scratch migration assay of PC-3 cells; assay type: cell-based, human; details: 1 μg/ml Gremlin, 3 days
Experimental: PC-3 cells at log-growth phase were harvested and re-suspended in cell culture medium (DMEM medium supplied with 10% FBS). Cells were non-treated or treated with 1 μg/ml Gremlin or 10 μg/ml 14E3 or 10 μg/ml control mIgG2a for 3 days. Then cells were planted at 10^5 cells/well in 6-well cell culture plate. After cells reached 100% coverage of the bottom of wells, the medium was changed to serum free medium. Each well was made with one scratch using 200 μl-tip. The migration rate of cells were analyzed by calculating the area of cells growing on the scratch using Image J software.

LNCaP-PSA cells = assay: LNCaP-PSA reporter cell assay (PSA-low population, flow cytometry); assay type: cell-based, human; details: dose dependent; day 7
Source text: In order to assess the role of gremlin1 in modulating tumor prostate cell growth, we tested the antibodies provided herein in an assay involving prostate cancer cell LNCaP. This cell line was transfected with a PSA promoter driven GFP expression lentivirus plasmid. PSA is known as a differentiated marker of prostate cell and prostate cancer cells with low level of PSA represent poorly differentiated or undifferentiated prostate cancer cells. These cells usually have stem cell like property and have more aggressive growth property. The LNCaP reporter cell assay is briefly described below.
LNCaP-PSA cells were plated in 24-well plates at 10000/well in RPMI 1640/10% FBS (GIBCO), 1% P/S (complete media) and incubated at 37° ° C. and 5% CO2 overnight. The next day, remove media, 1 ug/ml human gremlin (ACRO) or human gremlin with serially diluted antibodies were added to the cells. Change medium every three days. On day 7, remove media from the wells, wash with PBS twice, run flow cytometer (Bechman) using FITC channel.

LNCaP cells = assay: GREM1-promoted PCa cell proliferation and sphere formation with FGFR1/MEK inhibitors or BMP4; assay type: cell-based, human
Source text: as §1

binding to FGFR1 (FGFR1)	Molecule	cell proliferation (PC3 cells)	sphere formation (PC3 cells)	time MAPK activation was maintained at a high level ([1]; Gremlin1 100 ng/ml, PC3 and LNCaP cells)	p-FGFR1, p-MEK1/2 and p-ERK1/2 levels ([1]; LNCaP and PC3, 1 ng/ml, 10 ng/ml, 100 ng/ml, dose dependent)	cell migration of prostate cancer cells (PC-3 cells)	percentage of the PSA-low LNCaP population (LNCaP-PSA cells)	phosphorylation levels of FGFR1, MEK1/2 and ERK1/2 following GREM1 stimulation on addition of BMP4 ([1]; BMP4 20 ng/ml, PC3 and LNCaP-resistance cells)	proliferation promoting role of GREM1 (LNCaP cells)	sphere-formation promoting role of GREM1 (LNCaP cells)
binds	B1	significant elevation	significant elevation	up to 1 hour	increase	accelerated	increased			
	B2							did not alter	not affected	not affected
